Patent US20050203007A1 (REGENTS OF THE UNIVERSITY OF MICHIGAN, published 2005)
Each block holds one binder with its values, some of them ahead of it.

Tests used:
[1] = target: T1, secreted, soluble furin (human, UniProt P09958 108-715, limits assumed); test: rapid furin inhibition assay; table lists substitutions with equal or enhanced inhibition of furin relative to the template
T1 construct: Secreted, soluble construct; also called human furin
Method: 3. Rapid screening of libraries. Libraries were introduced into E. coli BL21 (DE3) cells and individual, cloned transformants were grown by shaking at 37° C. in 200 μl LB containing […] kanamycin in 96-well, 0.45 μm GHP membrane filter plates (Gelman) (FIG. 2). When O.D. 600 values reached 0.4, 60 μl of culture were transferred to secondary 96-well plates (Falcon), adjusted to 10% glycerol, and stored at −80° C. These frozen stocks served as master copies of the libraries. IPTG was added to the cultures to a final concentration of 1 mM, and the cultures were allowed to express eglin c variants for one hour in the filter plate. Expressed eglin c variants were extracted from the cells with 50 mM Tris-HCl pH 8.0 containing 2 mM EDTA following freezing and thawing. These extracts were collected as filtrates by centrifugation of the filter plate above a second plate. The filtrates, representing partially purified eglin c variants, were analyzed using a rapid fluorescence-based assay for processing enzyme inhibition as described below in Section 5. […] Frozen cells were cultured in 50 to 100 ml culture volumes, and DNA maxipreps were performed; the DNA preparations were then sequenced by automated DNA sequencing. Selected variants were expressed and purified on a larger scale, and affinities for furin or Kex2 were examined quantitatively (see below).
5. Rapid protease inhibition assay. Novel eglin variants were diluted 50-fold and incubated with secreted, soluble furin (0.5 nM) for 15 min in 96-well plates. The furin substrate (Boc-Arg-Val-Arg-Arg-MCA) was added, and release of AMC was monitored continuously in a 96-well fluorescence plate reader for 20 min, as described under Example 1. […] The plasmid DNA encoding such eglin c variant inhibitors were isolated and sequenced.

[2] = target: T2, human PC7 (human, UniProt Q16549 142-667, limits assumed); test: enzyme inhibition, purified variant
T2 sequence (looked up): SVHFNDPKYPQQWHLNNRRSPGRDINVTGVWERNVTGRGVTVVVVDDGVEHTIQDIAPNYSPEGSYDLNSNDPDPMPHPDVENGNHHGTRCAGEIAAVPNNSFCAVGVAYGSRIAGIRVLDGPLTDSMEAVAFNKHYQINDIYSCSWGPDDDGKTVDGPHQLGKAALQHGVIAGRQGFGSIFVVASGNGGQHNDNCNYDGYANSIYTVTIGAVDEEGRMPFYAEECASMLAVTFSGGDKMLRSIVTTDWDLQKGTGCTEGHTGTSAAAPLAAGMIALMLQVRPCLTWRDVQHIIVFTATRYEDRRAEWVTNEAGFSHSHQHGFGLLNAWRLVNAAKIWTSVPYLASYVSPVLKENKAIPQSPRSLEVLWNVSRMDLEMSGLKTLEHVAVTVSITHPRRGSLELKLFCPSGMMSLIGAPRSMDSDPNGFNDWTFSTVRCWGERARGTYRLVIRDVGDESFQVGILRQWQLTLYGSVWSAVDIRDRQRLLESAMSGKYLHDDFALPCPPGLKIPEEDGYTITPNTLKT

[3] = target: T3, secreted, soluble Kex2 (Saccharomyces cerevisiae, UniProt P13134 114-613, limits assumed); test: enzyme inhibition, purified variant
T3 construct: Secreted, soluble construct; also called kexin
T3 sequence (looked up): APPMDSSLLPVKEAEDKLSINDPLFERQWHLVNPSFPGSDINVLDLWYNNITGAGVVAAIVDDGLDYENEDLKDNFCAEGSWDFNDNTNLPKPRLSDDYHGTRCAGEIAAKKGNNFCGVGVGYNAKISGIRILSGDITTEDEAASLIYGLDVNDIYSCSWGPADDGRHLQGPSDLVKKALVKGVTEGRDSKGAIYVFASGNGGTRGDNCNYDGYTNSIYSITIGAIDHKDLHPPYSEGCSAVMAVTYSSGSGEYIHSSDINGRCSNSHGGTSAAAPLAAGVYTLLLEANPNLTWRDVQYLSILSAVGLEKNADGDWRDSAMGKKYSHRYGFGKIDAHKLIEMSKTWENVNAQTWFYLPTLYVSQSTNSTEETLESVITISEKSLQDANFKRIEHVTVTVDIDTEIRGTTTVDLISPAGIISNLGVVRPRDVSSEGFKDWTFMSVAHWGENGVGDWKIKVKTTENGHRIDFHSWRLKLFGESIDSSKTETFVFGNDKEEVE

[4] = target: T1, secreted, soluble furin; test: enzyme inhibition, purified variant
[5] = target: T3, secreted, soluble Kex2; test: enzyme inhibition, purified variant; remark: listed apart in the source
Method: (§1) Affinities of eglin variants with secreted, soluble Kex2 (hereafter “Kex2”; Brenner, C. and Fuller, R. S. (1992) Proc. Natl. Acad. Sci. USA 89: 922-926) and secreted, soluble furin (hereafter, “furin”; Bravo, D. A. et al (1994) J. Biol. Chem. 269: 25830-25837; and Komiyama & Fuller (2000) Biochemistry 39: 15156-15165) were measured by incubating variants with the enzymes (˜0.5 to 2.0 nM) for 45 min to 1 h at 21° C. in one of two enzyme assay buffers. For Kex2, the buffer was 200 mM Bistris (pH 7.27) containing 1 mM CaCl₂ and 0.1% Triton X-100; and for furin, the buffer was 20 mM NaMES (pH 7.0) containing 1 mM CaCl₂ and 0.1% Triton X-100 for furin. 100 to 200 μL aliquots of reaction mixtures were transferred into triplicate wells of opaque 96 well plates (Costar), and residual enzyme activity was measured with an fmax fluorescence micro plate reader (Molecular Devices) by monitoring hydrolysis of a fluorogenic substrate Boc-Arg-Val-Arg-Arg-MCA. Data were graphically analyzed (KaleidaGraph) with an equation developed by Green and Work (1953). Site-directed mutagenesis at P2 and P6 of eglin c generated temporary inhibitors (Table 3) and exhausted possibility to improve affinity further with this approach.

[6] = target: T1, secreted, soluble furin; test: enzyme inhibition, purified variant; remark: listed apart in the source
Method: as §1

[7] = target: T3, secreted, soluble Kex2; test: affinity of purified variants, enzyme inhibition
[8] = target: T3, secreted, soluble Kex2; test: equilibrium enzyme inhibition, fluorogenic substrate
Method: as §1

[9] = target: T1, secreted, soluble furin; test: as above
Method: as §1

[10] = target: T3, secreted, soluble Kex2; test: equilibrium enzyme inhibition
Method: (§2) Thus, R1-eglin refers to substitution of Arg at position P1.
(§3) Affinities of eglin variants with secreted, soluble Kex2 (hereafter “Kex2”; Brenner, C. and Fuller, R. S. (1992) Proc. Natl. Acad. Sci. USA 89: 922-926) and secreted, soluble furin (hereafter, “furin”; Bravo, D. A. et al (1994) J. Biol. Chem. 269: 25830-25837; and Komiyama & Fuller (2000) Biochemistry 39: 15156-15165) were measured by incubating variants with the enzymes (˜0.5 to 2.0 nM) for 45 min to 1 h at 21° C. in one of two enzyme assay buffers. For Kex2, the buffer was 200 mM Bistris (pH 7.27) containing 1 mM CaCl₂ and 0.1% Triton X-100; and for furin, the buffer was 20 mM NaMES (pH 7.0) containing 1 mM CaCl₂ and 0.1% Triton X-100 for furin.

[11] = target: T1, secreted, soluble furin; test: equilibrium enzyme inhibition
Method: as §2, §3

T1 sequence (P09958 108-715 limits assumed): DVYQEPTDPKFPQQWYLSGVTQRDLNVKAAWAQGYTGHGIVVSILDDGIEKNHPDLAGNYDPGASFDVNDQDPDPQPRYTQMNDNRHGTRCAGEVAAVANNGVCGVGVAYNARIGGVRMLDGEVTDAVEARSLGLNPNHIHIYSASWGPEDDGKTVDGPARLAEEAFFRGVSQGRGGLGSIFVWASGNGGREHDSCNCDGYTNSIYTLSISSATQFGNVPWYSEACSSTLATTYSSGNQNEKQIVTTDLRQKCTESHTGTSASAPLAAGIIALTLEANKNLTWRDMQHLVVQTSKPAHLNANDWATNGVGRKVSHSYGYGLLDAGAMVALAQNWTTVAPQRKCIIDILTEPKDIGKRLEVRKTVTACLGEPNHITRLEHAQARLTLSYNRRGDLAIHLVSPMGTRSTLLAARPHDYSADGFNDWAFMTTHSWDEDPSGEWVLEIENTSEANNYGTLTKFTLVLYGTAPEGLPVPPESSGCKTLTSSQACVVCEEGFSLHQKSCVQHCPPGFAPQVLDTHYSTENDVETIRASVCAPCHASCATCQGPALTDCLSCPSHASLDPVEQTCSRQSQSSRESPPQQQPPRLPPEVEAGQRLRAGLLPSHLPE

binding result [1]: binds
B1: Asn50Asp-R4K1-eglin (designed binder)
chain: SMGSELKSFPEVVGKTVDQAREYFTLHYPQYDVYFLPEGSRVTKDLRYDRVRVFYNPGTNVVNHVPHVG

Ki [2]: 1.4 nM
Ki [3]: 1 nM
Ki [4]: 1.6 nM
B2: Met49-R4R1-eglin (designed binder)
chain: SMGSELKSFPEVVGKTVDQAREYFTLHYPQYDVYFLPEGSRVTRDLRMNRVRVFYNPGTNVVNHVPHVG
notes: R4R1 template; N-terminal Met removed

Ki [5]: 1.6 nM
Ki ratio (to R4K1- template) [5]: 0.625
Ki [6]: 29 nM
Ki ratio (to R4K1- template) [6]: 0.769
B3: Leu37Gly-R4K1-eglin (designed binder)
chain: SMGSELKSFPEVVGKTVDQAREYFTLHYPQYDVYFGPEGSRVTKDLRYNRVRVFYNPGTNVVNHVPHVG
notes: R4K1 template; N-terminal Met removed

Ki [2]: 2.5 nM
Ki [3]: 0.21 nM
Ki [4]: 4.8 nM
B4: Ser49-R4R1-eglin (designed binder)
chain: SMGSELKSFPEVVGKTVDQAREYFTLHYPQYDVYFLPEGSRVTRDLRSNRVRVFYNPGTNVVNHVPHVG
notes: as for B2

binding result [1]: binds
binding result [7]: binds
B5: Glu39Gly-R4R1-eglin (designed binder)
chain: SMGSELKSFPEVVGKTVDQAREYFTLHYPQYDVYFLPGGSRVTRDLRYNRVRVFYNPGTNVVNHVPHVG

binding result [1]: binds
B6: Asp33Gly-R4K1-eglin (designed binder)
chain: SMGSELKSFPEVVGKTVDQAREYFTLHYPQYGVYFLPEGSRVTKDLRYNRVRVFYNPGTNVVNHVPHVG

binding result [1]: binds
B7: Gly40Pro-R4R1-eglin (designed binder)
chain: SMGSELKSFPEVVGKTVDQAREYFTLHYPQYDVYFLPEPSRVTRDLRYNRVRVFYNPGTNVVNHVPHVG

Ki [2]: 0.47 nM
Ki [3]: 1.2 nM
Ki [4]: 10 nM
B8: Trp49-R4R1-eglin (designed binder)
chain: SMGSELKSFPEVVGKTVDQAREYFTLHYPQYDVYFLPEGSRVTRDLRWNRVRVFYNPGTNVVNHVPHVG
notes: as for B2

binding result [1]: binds
B9: Leu47Val-R4R1-eglin (designed binder)
chain: SMGSELKSFPEVVGKTVDQAREYFTLHYPQYDVYFLPEGSRVTRDVRYNRVRVFYNPGTNVVNHVPHVG

binding result [1]: binds
binding result [7]: binds
B10: Glu39Cys-R4R1-eglin (designed binder)
chain: SMGSELKSFPEVVGKTVDQAREYFTLHYPQYDVYFLPCGSRVTRDLRYNRVRVFYNPGTNVVNHVPHVG

Ki [8]: 100000 nM
Ki [9]: 56000 nM
fold increase in affinity relative to L1-eglin [10]: 5 fold
fold enhancement of affinity relative to L1-eglin [11]: 2 to 3 fold
B11: R4-eglin (designed binder)
chain: SMGSELKSFPEVVGKTVDQAREYFTLHYPQYDVYFLPEGSRVTLDLRYNRVRVFYNPGTNVVNHVPHVG
notes: N-terminal Met removed; also called R4L1-eglin

binding result [1]: binds
B12: Gly40Ala-R4R1-eglin (designed binder)
chain: SMGSELKSFPEVVGKTVDQAREYFTLHYPQYDVYFLPEASRVTRDLRYNRVRVFYNPGTNVVNHVPHVG

Ki [2]: 2.9 nM
Ki [3]: 0.036 nM
Ki [4]: 0.53 nM
B13: Glu49-R4R1-eglin (designed binder)
chain: SMGSELKSFPEVVGKTVDQAREYFTLHYPQYDVYFLPEGSRVTRDLRENRVRVFYNPGTNVVNHVPHVG
notes: as for B2

Ki [8]: 4.5 nM
Ki [9]: 17000 nM
fold decrease of Ka relative to M4R1-eglin [10]: 13.2 fold
fold decrease of Ka relative to M4R1-eglin [11]: 4.7 fold
B14: M4K1-eglin (designed binder)
chain: SMGSELKSFPEVVGKTVDQAREYFTLHYPQYDVYFLPEGSMVTKDLRYNRVRVFYNPGTNVVNHVPHVG
notes: N-terminal Met removed

binding result [1]: binds
B15: Tyr35Ile-R4R1-eglin (designed binder)
chain: SMGSELKSFPEVVGKTVDQAREYFTLHYPQYDVIFLPEGSRVTRDLRYNRVRVFYNPGTNVVNHVPHVG

binding result [1]: binds
B16: Asp33Ile-R4K1-eglin (designed binder)
chain: SMGSELKSFPEVVGKTVDQAREYFTLHYPQYIVYFLPEGSRVTKDLRYNRVRVFYNPGTNVVNHVPHVG

Ki [5]: 1 nM
Ki ratio (to R4R1- template) [5]: 1.1
Ki [6]: 1.3 nM
Ki ratio (to R4R1- template) [6]: 0.526
fold increase in affinity (relative to R4R1-eglin) [6]: ~2 fold
Ki [2]: 2.9 nM
Ki [3]: 1 nM
Ki [4]: 1.8 nM
B17: Tyr49Ala-R4R1-eglin (designed binder)
chain: SMGSELKSFPEVVGKTVDQAREYFTLHYPQYDVYFLPEGSRVTRDLRANRVRVFYNPGTNVVNHVPHVG
notes: R4R1 template; N-terminal Met removed; also called Ala49-R4R1-

Ki [5]: 1.2 nM
Ki ratio (to R4K1- template) [5]: 0.476
Ki [6]: 17 nM
Ki ratio (to R4K1- template) [6]: 0.455
B18: Asp33Val-R4K1-eglin (designed binder)
chain: SMGSELKSFPEVVGKTVDQAREYFTLHYPQYVVYFLPEGSRVTKDLRYNRVRVFYNPGTNVVNHVPHVG
notes: as for B3
